This is an account of results in patent US20240327500A1.

The target of this assay is HBV virions (Genotype D) (Hepatitis B virus genotype D). As to the kind of experiment: cell-based or functional assay.

In the case of HBC34 (antibody), the neutralization at 0.03 µg/ml, in-vitro assay was found to be 29%.
